Columns and labels:
[1] = biological target: human CD3 on T cells (human) (UniProt P07766); assay: flow cytometry, Jurkat cells
[2] = biological target: recombinant GST-human GPC3 stem protein (human); assay: ELISA, coated antigen 1 µg/ml
[3] = biological target: recombinant cynomolgus monkey GPC3 full-length protein (cynomolgus monkey); assay: ELISA, coated antigen 1 µg/ml
[4] = biological target: recombinant human GPC3 protein (human) (UniProt P51654); assay: ELISA, coated antigen 1 µg/ml
[5] = biological target: human GPC3 on cells (human) (UniProt P51654); assay: flow cytometry, CHO-human GPC3 cells
[6] = biological target: recombinant human GPC3 protein (human) (UniProt P51654); assay: BLI (Octet), antibody on Protein A probe
[7] = biological target: recombinant human GPC3 protein (human) (UniProt P51654); assay: BLI (Octet), antibody on Protein A probe; remark: listed apart in the source
[8] = biological target: recombinant cynomolgus monkey GPC3 full-length protein (cynomolgus monkey); assay: SPR (Biacore T200), antibody on Protein A chip, GPC3 as analyte
[9] = biological target: recombinant human GPC3 protein (human) (UniProt P51654); assay: as above
[10] = biological target: human GPC3 on cells (human) (UniProt P51654); assay: flow cytometry on human GPC3-CHO stably-transfected cells, MFI
[11] = biological target: recombinant human GPC3 protein (human) (UniProt P51654); assay: ELISA on coated recombinant human GPC3 protein, OD450 [panel Recombinant human GPC3 protein]
[12] = biological target: recombinant cynomolgus monkey GPC3 full-length protein (cynomolgus monkey); assay: ELISA on coated recombinant cynomolgus monkey GPC3 protein, OD450 [panel Recombinant cynomolgus monkey GPC3 protein]
[13] = biological target: human CD3 on T cells (human) (UniProt P07766); assay: flow cytometry, human peripheral blood CD4+ T cells
[14] = biological target: human CD3 on T cells (human) (UniProt P07766); assay: flow cytometry, human peripheral blood CD8+ T cells

Sequence of recombinant GST-human GPC3 stem protein (human) (chain, as listed by the source limits assumed, form in doubt): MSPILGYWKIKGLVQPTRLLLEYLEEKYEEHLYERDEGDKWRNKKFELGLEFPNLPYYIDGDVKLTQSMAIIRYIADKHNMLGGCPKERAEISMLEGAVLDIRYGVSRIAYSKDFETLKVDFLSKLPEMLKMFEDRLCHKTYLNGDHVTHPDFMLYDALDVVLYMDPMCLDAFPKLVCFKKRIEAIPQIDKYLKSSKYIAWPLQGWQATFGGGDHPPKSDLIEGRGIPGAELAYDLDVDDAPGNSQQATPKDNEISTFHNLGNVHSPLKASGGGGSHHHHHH

Q: For OKT3-hIgG1 (antibody), which EC50 [1] is on record?
A: Its EC50 is 0.27 nM.

Q: GC33 (antibody) was tested. Which EC50 [2] did it give?
A: Its EC50 is 0.06 nM.

Q: And the EC50 [3]?
A: The EC50 was 0.16 nM.

Q: And the EC50 [4]?
A: Its EC50 is 0.074 nM.

Q: What about the EC50 [5] of the same substance?
A: The EC50 was 2.74 nM.

Q: And the Kd [6]?
A: The Kd was 4.17 nM.

Q: And the koff [6]?
A: The koff was 0.000229 s⁻¹.

Q: And the kon [6]?
A: The kon was 54900 M⁻¹ s⁻¹.

Q: And the Kd [7]?
A: The Kd was 1.35 nM.

Q: And the koff [7]?
A: Its koff is 0.000111 s⁻¹.

Q: What about the kon [7] of the same substance?
A: Its kon is 82600 M⁻¹ s⁻¹.

Q: And the Kd [8]?
A: The Kd was 6.38 nM.

Q: And the koff [8]?
A: The koff was 0.000429 s⁻¹.

Q: And the kon [8]?
A: Its kon is 67200 M⁻¹ s⁻¹.

Q: And the Kd [9]?
A: The Kd was 1.03 nM.

Q: What about the koff [9] of the same substance?
A: The koff was 0.000185 s⁻¹.

Q: And the kon [9]?
A: Its kon is 181000 M⁻¹ s⁻¹.

Q: What about the EC50 (read off the curve) [10] of the same substance?
A: The EC50 (read off the curve) was 4 nM.

Q: What about the EC50 (read off the curve) [11] of the same substance?
A: Its EC50 (read off the curve) is 0.03 nM.

Q: What about the EC50 (read off the curve) [12] of the same substance?
A: Its EC50 (read off the curve) is 0.03 nM.

Q: Which results are given for KLH×CD3 (bispecific antibody)?
A: EC50 [1]: 27 nM; EC50 [13]: 77 nM; EC50 [14]: 84 nM
